# According to publication PMC10393062:
# Experiments:
# [1] = target: Venus-iLID-CaaX; test: light-induced recruitment of a cytosolic prey to a plasma membrane bait (live-cell confocal microscopy); HeLa cells, 37°C; photo-activation with 488 nm laser light (1% intensity) every 2.5 s for 2 min; normalized membrane to cytosol intensity ratio of the prey; t½ ON and OFF from a mono-exponential fit to the mean
# [2] = target: Venus-iLID-CaaX; test: light-induced recruitment of a cytosolic prey to a plasma membrane bait (live-cell spinning disk microscopy); HeLa cells; 1 pulse of 440 nm laser light at 20% for 1 s; change in cytosolic intensity of the prey in percent, measured 20 s after stimulation
# [3] = target: Lck-mTurquoise2-iLID; test: as above
substance,measurement,setting,value
SspB-mScarlet-I (from UniProt P0AFZ3 1-165) (natural protein),t½ OFF of recruitment (after 488 nm light),[1],20.3 s
same,t½ ON of recruitment (488 nm light),[1],5.14 s
same,mean change in cytosolic intensity (recruitment efficiency),[2],25.5%
same,median change in cytosolic intensity (recruitment efficiency),[3],36.7%
